For experiment [1], the target named is T1, recombinant human VISTA (His-tagged) (human, UniProt Q9H7M9 33-194).
T1 construct: bought soluble protein (Sino Biological); also called hVISTA; human VISTA polypeptide
The experiment can be described thus: ELISA on coated human VISTA, antibody diluted in buffer of pH 6. (In general: ELISA stands for enzyme-linked immunosorbent assay.)

In the next experiment the target is T2, human PD-L1 (human, UniProt Q9NZQ7 19-239).
T2 construct: captured through a His tag in the BLI experiments; also called hPD-L1; B7H1/PDL-1
The experiment can be described thus: ELISA, plate coated with human B7H1 (PDL1), antibody titrated.

The next experiment deals with human C1q protein (human, UniProt P02745 23-245; P02746 28-253; P02747 29-245). The experiment can be described thus: ELISA, plate coated with human C1q protein, detection with HRP anti-human Fc antibody.
The target of experiment [2] is T1, recombinant human VISTA (His-tagged). The experiment can be described thus: antigen-binding ELISA; HMBD-002 in F7, day 20 at 40°C.
Experiment [3] addresses T3, human B7H3 (human, UniProt Q5ZPR3 29-461, limits assumed).
T3 construct: also called CD276
T3 sequence (looked up): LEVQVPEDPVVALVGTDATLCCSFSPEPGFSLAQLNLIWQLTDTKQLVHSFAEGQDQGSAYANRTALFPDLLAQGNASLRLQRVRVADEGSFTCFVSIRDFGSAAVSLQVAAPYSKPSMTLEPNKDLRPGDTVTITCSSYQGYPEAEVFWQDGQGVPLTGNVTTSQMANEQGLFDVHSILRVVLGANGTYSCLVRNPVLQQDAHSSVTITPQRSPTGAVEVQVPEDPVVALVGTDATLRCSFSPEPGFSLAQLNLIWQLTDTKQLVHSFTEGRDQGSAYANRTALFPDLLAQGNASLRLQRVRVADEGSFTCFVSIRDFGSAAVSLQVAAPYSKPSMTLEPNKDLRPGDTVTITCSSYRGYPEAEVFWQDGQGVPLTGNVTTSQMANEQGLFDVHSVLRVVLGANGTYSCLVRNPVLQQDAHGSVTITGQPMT
The experiment can be described thus: ELISA, plate coated with human B7H3, antibody titrated.

Experiment [4] addresses T4, recombinant cynomolgus macaque VISTA (His-tagged) (cynomolgus macaque, UniProt A0A7N9IB00 33-194).
T4 construct: also called cyno VISTA; cynomolgus monkey VISTA
The experiment can be described thus: SPR (Biacore), NHP VISTA-HIS captured, antibody as analyte, 1:1 model; SPR (Biacore), NHP (cynomolgus) VISTA. Background: Surface plasmon resonance follows binding to a sensor surface in real time, without labels.

For experiment [5], the target named is T1, recombinant human VISTA (His-tagged). The experiment can be described thus: antigen-binding ELISA; HMBD-002 10 mg/mL in F7, day 0.
Experiment [6] concerns the target T5, human B7H7 (human, UniProt Q9UM44 23-344).
T5 construct: also called HHLA2
T5 sequence (looked up): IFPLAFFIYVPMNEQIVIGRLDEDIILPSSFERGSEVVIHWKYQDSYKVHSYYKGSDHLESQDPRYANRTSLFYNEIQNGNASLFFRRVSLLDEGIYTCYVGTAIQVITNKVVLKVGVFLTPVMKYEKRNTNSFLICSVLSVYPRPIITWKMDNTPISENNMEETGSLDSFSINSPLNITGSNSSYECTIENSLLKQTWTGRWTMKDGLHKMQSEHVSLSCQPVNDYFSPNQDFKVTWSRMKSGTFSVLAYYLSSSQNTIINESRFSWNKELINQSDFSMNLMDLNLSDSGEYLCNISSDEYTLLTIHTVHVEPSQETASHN
The experiment can be described thus: ELISA, plate coated with the antigen.

In experiment [7] the target is T6, human PD-1 (human, UniProt Q15116 25-167). The experiment can be described thus: ELISA, plate coated with the antigen.
Experiment [8] addresses T7, human CTLA4 (human, UniProt P16410 36-162). The experiment can be described thus: ELISA, plate coated with the antigen.
Experiment [9] concerns the target T3, human B7H3. The experiment can be described thus: ELISA, plate coated with the antigen.
Experiment [10] deals with T8, human B7H4 (human, UniProt Q7Z7D3 25-258, limits assumed).
T8 construct: also called VTCN1
T8 sequence (looked up): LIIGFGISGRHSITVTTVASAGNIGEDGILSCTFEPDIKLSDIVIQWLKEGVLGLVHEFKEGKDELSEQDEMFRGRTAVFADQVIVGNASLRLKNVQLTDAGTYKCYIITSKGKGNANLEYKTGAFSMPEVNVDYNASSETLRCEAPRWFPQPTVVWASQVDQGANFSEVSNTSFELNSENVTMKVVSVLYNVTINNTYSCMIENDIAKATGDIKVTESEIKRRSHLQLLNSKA
The experiment can be described thus: ELISA, plate coated with the antigen.

In experiment [11] the target is T9, human B7H6 (human, UniProt Q68D85 25-262).
T9 construct: also called NCR3LG1
T9 sequence (looked up): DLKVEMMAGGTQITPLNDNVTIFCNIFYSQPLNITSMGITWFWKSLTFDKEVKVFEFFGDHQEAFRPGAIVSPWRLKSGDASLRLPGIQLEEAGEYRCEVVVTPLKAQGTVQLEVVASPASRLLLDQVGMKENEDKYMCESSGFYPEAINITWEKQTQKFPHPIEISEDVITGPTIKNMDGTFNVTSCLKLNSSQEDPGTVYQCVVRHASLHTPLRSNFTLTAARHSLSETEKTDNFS
The experiment can be described thus: ELISA, plate coated with the antigen.

The target in experiment [12] is T5, human B7H7. The experiment can be described thus: ELISA, plate coated with the antigen. This is another data set of the same source.
Experiment [13] has as its target T6, human PD-1. The experiment can be described thus: ELISA, plate coated with the antigen. This is another data set of the same source.
Experiment [14] addresses T7, human CTLA4. The experiment can be described thus: ELISA, plate coated with the antigen. The source holds these as a separate data set.
The target in experiment [15] is T3, human B7H3. The experiment can be described thus: ELISA, plate coated with the antigen. This is another data set of the same source.
Experiment [16] has as its target T8, human B7H4. The experiment can be described thus: ELISA, plate coated with the antigen. This is another data set of the same source.
Experiment [17] concerns the target T9, human B7H6. The experiment can be described thus: ELISA, plate coated with the antigen. This is another data set of the same source.

Like-named read-outs stand apart in the source and are kept apart here.

T7 sequence (P16410 36-162 limits assumed): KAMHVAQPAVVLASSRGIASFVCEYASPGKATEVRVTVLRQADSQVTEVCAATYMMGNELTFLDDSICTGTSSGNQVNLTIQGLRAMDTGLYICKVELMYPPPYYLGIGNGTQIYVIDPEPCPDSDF
T6 sequence (Q15116 25-167 limits assumed): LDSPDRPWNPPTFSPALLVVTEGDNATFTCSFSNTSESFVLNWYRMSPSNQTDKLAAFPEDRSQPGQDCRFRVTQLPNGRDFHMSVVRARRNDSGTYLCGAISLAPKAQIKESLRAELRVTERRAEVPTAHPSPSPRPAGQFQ
T2 sequence (Q9NZQ7 19-239 limits assumed): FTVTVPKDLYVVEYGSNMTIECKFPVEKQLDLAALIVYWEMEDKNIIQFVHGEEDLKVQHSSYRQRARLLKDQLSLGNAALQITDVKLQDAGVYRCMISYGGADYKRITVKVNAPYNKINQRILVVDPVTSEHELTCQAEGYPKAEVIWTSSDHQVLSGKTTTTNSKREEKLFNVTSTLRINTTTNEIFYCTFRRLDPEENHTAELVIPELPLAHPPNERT
Sequence of human C1q protein (P02745 23-245 limits assumed, chain 1 of 3): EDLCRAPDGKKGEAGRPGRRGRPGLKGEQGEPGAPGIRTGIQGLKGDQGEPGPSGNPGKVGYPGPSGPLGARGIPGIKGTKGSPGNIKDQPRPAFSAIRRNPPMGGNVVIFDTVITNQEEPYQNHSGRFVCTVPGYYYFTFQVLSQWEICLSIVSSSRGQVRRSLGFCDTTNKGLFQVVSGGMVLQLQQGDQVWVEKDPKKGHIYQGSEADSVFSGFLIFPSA
Sequence of human C1q protein (P02746 28-253 limits assumed, chain 2 of 3): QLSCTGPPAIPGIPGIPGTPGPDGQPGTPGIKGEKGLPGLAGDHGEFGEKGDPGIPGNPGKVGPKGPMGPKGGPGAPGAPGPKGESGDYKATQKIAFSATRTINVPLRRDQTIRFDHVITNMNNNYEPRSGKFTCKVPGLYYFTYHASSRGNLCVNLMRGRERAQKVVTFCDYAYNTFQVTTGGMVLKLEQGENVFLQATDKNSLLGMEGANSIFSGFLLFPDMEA
Sequence of human C1q protein (P02747 29-245 limits assumed, chain 3 of 3): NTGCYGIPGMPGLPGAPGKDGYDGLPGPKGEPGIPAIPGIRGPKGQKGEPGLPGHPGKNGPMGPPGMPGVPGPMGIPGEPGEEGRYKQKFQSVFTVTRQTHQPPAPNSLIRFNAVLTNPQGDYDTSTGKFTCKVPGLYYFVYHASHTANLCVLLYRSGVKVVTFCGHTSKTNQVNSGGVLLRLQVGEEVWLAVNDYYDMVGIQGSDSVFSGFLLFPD

B1: V4-C26 hIgG4 (antibody)
heavy: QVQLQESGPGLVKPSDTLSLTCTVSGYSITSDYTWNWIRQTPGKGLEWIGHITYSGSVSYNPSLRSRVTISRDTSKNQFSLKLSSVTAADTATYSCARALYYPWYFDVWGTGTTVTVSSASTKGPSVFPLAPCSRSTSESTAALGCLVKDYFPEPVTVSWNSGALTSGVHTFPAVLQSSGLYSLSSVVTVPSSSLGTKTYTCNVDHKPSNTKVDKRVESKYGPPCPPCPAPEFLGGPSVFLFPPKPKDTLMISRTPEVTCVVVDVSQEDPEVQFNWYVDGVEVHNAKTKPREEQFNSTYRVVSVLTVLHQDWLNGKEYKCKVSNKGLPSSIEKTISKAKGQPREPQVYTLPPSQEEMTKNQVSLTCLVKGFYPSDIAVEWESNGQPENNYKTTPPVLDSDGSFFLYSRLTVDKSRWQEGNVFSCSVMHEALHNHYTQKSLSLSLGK
light: EIVLTQSPATLSLSPGERATLSCRASSSVGYIHWYQQKPGQAPRPIIYTTSNRATGIPARFSGSGSGTDNTLTISSLEPEDSAVYYCQQWSSYPPITFGGGTKLEVKRTVAAPSVFIFPPSDEQLKSGTASVVCLLNNFYPREAKVQWKVDNALQSGNSQESVTEQDSKDSTYSLSSTLTLSKADYEKHKVYACEVTHQGLSSPVTKSFNRGEC
notes: human IgG4 (S228P)/kappa format; also called HMBD-002; HMBD-002-V4C26
Turning to B1, the EC50 in experiment [1] worked out at 58.9 pM; in experiment [2], 20.6 pM; in [5], 28.9 pM. Moreover, the binding result with human PD-L1 is listed as “no binding (tested: about 3e-8 M)”; in the experiment with human C1q protein it was “no binding (tested: about 2e-7 M)”; in the experiment with human B7H3 [3] it was “no binding (tested: about 3e-8 M)”. For the same molecule, in [4], the Kd was 367 pM.

B2: anti-VISTA clone V4-C24 IgG1 (antibody, V domains shown)
VH: QVQLQESGPGLVKPSDTLSLTCTVSGYSITSDYTWNWIRQTPGKGLEWIGHITYSGSVSYNPSLRSRVTISRDTSKNQFSLKLSSVTAADTATYSCARALYYPWYFDVWGTGTTVTVSS
VL: EIVLTQSPATLSLSPGERATLSCRASSSVGYIHWYQQKPGQAPRPLIYTTSYRATGIPARFSGSGSGTDNTLTISSLEPEDSAVYYCQQWSSYPPITFGGGTKLEVKR
Take B2: the binding result with human B7H7 [6], with human PD-1 [7], in the experiment with human CTLA4 [8], with human B7H3 [9], with human B7H4 [10] and with human B7H6 [11] was “no binding (tested: log -7.5 M)” throughout.

B3: anti-VISTA clone V4-C26 IgG1 (antibody)
heavy: not shown
light: B1 light
On to B3, for which the binding result in the experiment with human B7H7 [12], with human PD-1 [13], with human CTLA4 [14], with human B7H3 [15], with human B7H4 [16] and with human B7H6 [17] was “no binding (tested: log -7.5 M)” in each case.

One may read the EC50 as the concentration giving half of the maximal effect. By Kd is commonly meant the constant that tells how readily two partners part at equilibrium.
